Results taken from PMC10786891, “Massively parallel profiling of RNA-targeting CRISPR-Cas13d”.
Changes are numbered by the printed parent chain. Names may count otherwise.

Target: T1, EsCas13d, nuclease-dead (Eubacterium siraeum, UniProt B0MS50, R295A;H300A;R849A;H854A)
T1 sequence: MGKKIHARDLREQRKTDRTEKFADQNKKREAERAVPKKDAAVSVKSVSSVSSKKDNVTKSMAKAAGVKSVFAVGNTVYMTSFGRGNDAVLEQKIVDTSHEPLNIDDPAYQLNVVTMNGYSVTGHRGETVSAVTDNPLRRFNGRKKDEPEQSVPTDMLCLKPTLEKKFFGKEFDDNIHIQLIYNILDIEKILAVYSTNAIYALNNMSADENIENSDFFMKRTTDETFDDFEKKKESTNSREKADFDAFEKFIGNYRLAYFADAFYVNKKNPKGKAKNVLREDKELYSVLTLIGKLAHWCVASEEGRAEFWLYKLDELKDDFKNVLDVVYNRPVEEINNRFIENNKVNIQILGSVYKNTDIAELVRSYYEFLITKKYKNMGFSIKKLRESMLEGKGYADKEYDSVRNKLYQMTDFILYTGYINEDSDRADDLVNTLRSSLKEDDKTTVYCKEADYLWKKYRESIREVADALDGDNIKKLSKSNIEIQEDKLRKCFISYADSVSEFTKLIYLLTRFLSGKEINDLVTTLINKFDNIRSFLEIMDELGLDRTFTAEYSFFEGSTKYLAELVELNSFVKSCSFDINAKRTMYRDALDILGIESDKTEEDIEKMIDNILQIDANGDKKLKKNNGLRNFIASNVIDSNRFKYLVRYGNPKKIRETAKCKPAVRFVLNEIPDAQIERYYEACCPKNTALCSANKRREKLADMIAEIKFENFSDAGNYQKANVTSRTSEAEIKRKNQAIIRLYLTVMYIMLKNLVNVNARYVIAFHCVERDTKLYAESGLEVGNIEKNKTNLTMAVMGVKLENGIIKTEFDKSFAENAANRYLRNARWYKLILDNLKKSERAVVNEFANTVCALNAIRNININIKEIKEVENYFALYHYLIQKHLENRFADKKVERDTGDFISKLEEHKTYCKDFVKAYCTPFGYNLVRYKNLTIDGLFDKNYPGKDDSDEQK
Test: crRNA (strand 1, pre-loaded); Mg2+; 40 mM Tris-HCl pH 7.5, 150 mM NaCl, 6 mM MgCl2, 1 mM DTT, 0.1% Tween-20, 0.2 mg/ml BSA; 25 C; 10 min per concentration, then washed
Details: tags: His6-TwinStrep-SUMO cleaved; N-terminal SNAP kept (SNAP-Surface 488); label: 3' end held by stalled T7 RNA polymerase

B1: target 1 insC 3' of 8,insC 3' of 1 (mixed)
RNA 1: CACCCGUGCAAAAAUGCAGGGGUCUAAAACUGAGCGGAUAACCUCUCUAUGG
RNA 2: GGGAAUGGAUCCACAUCUACGAAUUCGUACCAUAGAGAGGUUAUCCCGCUCACCCGAGAUCGGAAGAGCACACGU
- Kd: 13 ± 0.9 nM

B2: target 1 U10G,U11A (mixed)
RNA 1: B1 RNA 1
RNA 2: GGGAAUGGAUCCACAUCUACGAAUUCGUACCAUAGAGAGGAGAUCCGCUCACCGAGAUCGGAAGAGCACACGU
- Kd: 12.9 ± 1 nM

B3: target 1 insA 3' of 13,insU 3' of 12 (mixed)
RNA 1: B1 RNA 1
RNA 2: GGGAAUGGAUCCACAUCUACGAAUUCGUACCAUAGAGAGAGUUUAUCCGCUCACCGAGAUCGGAAGAGCACACGU
- Kd: 4.2 ± 0.5 nM

B4: target 1 A1G,G17U (mixed)
RNA 1: B1 RNA 1
RNA 2: B2 RNA 2 with G35U, A41U, G42U, A51G
- Kd: 21.3 ± 2.1 nM

B5: target 1 insC 3' of 17,insU 3' of 13 (mixed)
RNA 1: B1 RNA 1
RNA 2: B3 RNA 2 with A36C, G37A, A38G, G39A, A40G, G41U, U42G
- Kd: 80 ± 40 nM

B6: target 1 insG 3' of 18,insA 3' of 4 (mixed)
RNA 1: B1 RNA 1
RNA 2: GGGAAUGGAUCCACAUCUACGAAUUCGUACCAUAGGAGAGGUUAUCCGCAUCACCGAGAUCGGAAGAGCACACGU
- Kd: 43 ± 5 nM

B7: target 1 insC 3' of 20,insC 3' of 13 (mixed)
RNA 1: B1 RNA 1
RNA 2: GGGAAUGGAUCCACAUCUACGAAUUCGUACCACUAGAGAGCGUUAUCCGCUCACCGAGAUCGGAAGAGCACACGU
- Kd: 7.2 ± 0.6 nM

B8: target 1 insC 3' of 8,insG 3' of 1 (mixed)
RNA 1: B1 RNA 1
RNA 2: B1 RNA 2 with C53G
- Kd: 14.3 ± 1 nM

B9: target 1 C2U,A18C (mixed)
RNA 1: B1 RNA 1
RNA 2: B2 RNA 2 with A34C, A41U, G42U, C50U
- Kd: 48.9 ± 2.9 nM

B10: target 1 C7G,A18U (mixed)
RNA 1: B1 RNA 1
RNA 2: B2 RNA 2 with A34U, A41U, G42U, C45G
- Kd: 32 ± 6 nM

B11: target 1 insU 3' of 17,insA 3' of 17 (mixed)
RNA 1: B1 RNA 1
RNA 2: B3 RNA 2 with A36U, G37A, U42G
- Kd: 30.5 ± 2.2 nM

B12: target 1 U10C,U11C (mixed)
RNA 1: B1 RNA 1
RNA 2: B2 RNA 2 with A41C, G42C
- Kd: 24.7 ± 2.9 nM

B13: target 1 insC 3' of 17,insA 3' of 12 (mixed)
RNA 1: B1 RNA 1
RNA 2: B7 RNA 2 with C33U, U34A, A35G, G36C, C41G, G42A
- Kd: 32.9 ± 2.7 nM

B14: target 1 C4U,G12U (mixed)
RNA 1: B1 RNA 1
RNA 2: B2 RNA 2 with G40U, A41U, G42U, C48U
- Kd: 36 ± 8 nM

B15: target 1 C4A,C22A (mixed)
RNA 1: B1 RNA 1
RNA 2: B2 RNA 2 with C30A, A41U, G42U, C48A
- Kd: 5.7 ± 0.8 nM

B16: target 1 insA 3' of 22,insA 3' of 21 (mixed)
RNA 1: B1 RNA 1
RNA 2: B3 RNA 2 with C31A, A32C, U33A, G35U, U42G
- Kd: 16.2 ± 0.9 nM

B17: target 1 insG 3' of 11,insA 3' of 3 (mixed)
RNA 1: B1 RNA 1
RNA 2: B1 RNA 2 with U42G, A43U, U44A, C45U, C51A, A52C, C53A
- Kd: 17.5 ± 1.2 nM

B18: target 1 C7U,G13U (mixed)
RNA 1: B1 RNA 1
RNA 2: B2 RNA 2 with G39U, A41U, G42U, C45U
- Kd: 39 ± 6 nM

B19: target 1 insA 3' of 15,insA 3' of 4 (mixed)
RNA 1: B1 RNA 1
RNA 2: B6 RNA 2 with G36A, A37G, G38A
- Kd: 7.7 ± 0.9 nM

B20: target 1 insC 3' of 13,insC 3' of 11 (mixed)
RNA 1: B1 RNA 1
RNA 2: B3 RNA 2 with A40C, U43C
- Kd: 14.2 ± 1 nM

B21: target 1 U10A,C21U (mixed)
RNA 1: B1 RNA 1
RNA 2: B2 RNA 2 with C31U, A41U, G42A
- Kd: 8.1 ± 0.5 nM

B22: target 1 A9C,A18U (mixed)
RNA 1: B1 RNA 1
RNA 2: B2 RNA 2 with A34U, A41U, G42U, A43C
- Kd: 63 ± 10 nM

B23: target 1 insC 3' of 8,insA 3' of 2 (mixed)
RNA 1: B1 RNA 1
RNA 2: B1 RNA 2 with C53A
- Kd: 18.9 ± 1.4 nM

B24: target 1 insC 3' of 15,insU 3' of 1 (mixed)
RNA 1: B1 RNA 1
RNA 2: B1 RNA 2 with A38C, G39A, U41G, A43U, U44A, C45U, C53U
- Kd: 19.1 ± 1.8 nM

B25: target 1 insA 3' of 13,insA 3' of 12 (mixed)
RNA 1: B1 RNA 1
RNA 2: B3 RNA 2 with U42A
- Kd: 11.8 ± 0.8 nM

B26: target 1 del3,del4 (mixed)
RNA 1: B1 RNA 1
RNA 2: GGGAAUGGAUCCACAUCUACGAAUUCGUACCAUAGAGAGGUUAUCCGCACCGAGAUCGGAAGAGCACACGU
- Kd: 14.4 ± 1.2 nM

B27: target 1 U8C,U11A (mixed)
RNA 1: B1 RNA 1
RNA 2: B2 RNA 2 with G42U, U44C
- Kd: 32.5 ± 3.2 nM

B28: target 1 U8G,G17U (mixed)
RNA 1: B1 RNA 1
RNA 2: B2 RNA 2 with G35U, A41U, G42U, U44G
- Kd: 91 ± 14 nM

B29: target 1 insC 3' of 10,insA 3' of 3 (mixed)
RNA 1: B1 RNA 1
RNA 2: B1 RNA 2 with A43C, U44A, C45U, C51A, A52C, C53A
- Kd: 12.9 ± 0.6 nM

B30: target 1 del1,del3 (mixed)
RNA 1: B1 RNA 1
RNA 2: B26 RNA 2 with A49C
- Kd: 45 ± 13 nM

B31: target 1 A1G,C6A (mixed)
RNA 1: B1 RNA 1
RNA 2: B2 RNA 2 with A41U, G42U, C46A, A51G
- Kd: 7 ± 0.35 nM

B32: target 1 C7U,C21U (mixed)
RNA 1: B1 RNA 1
RNA 2: B2 RNA 2 with C31U, A41U, G42U, C45U
- Kd: 6 ± 0.4 nM

B33: target 1 G5A,C21U (mixed)
RNA 1: B1 RNA 1
RNA 2: B2 RNA 2 with C31U, A41U, G42U, G47A
- Kd: 23 ± 6 nM

B34: target 1 C2A,U19G (mixed)
RNA 1: B1 RNA 1
RNA 2: B2 RNA 2 with U33G, A41U, G42U, C50A
- Kd: 48 ± 5 nM
